Eleven variants from IntAct's records for PubMed 31515488 can be followed below.

B1: Zinc finger protein Aiolos (Homo sapiens), Q9UKT9 (parent)
chain: MEDIQTNAELKSTQEQSVPAESAAVLNDYSLTKSHEMENVDSGEGPANEDEDIGDDSMKVKDEYSERDENVLKSEPMGNAEEPEIPYSYSREYNEYENIKLERHVVSFDSSRPTSGKMNCDVCGLSCISFNVLMVHKRSHTGERPFQCNQCGASFTQKGNLLRHIKLHTGEKPFKCHLCNYACQRRDALTGHLRTHSVEKPYKCEFCGRSYKQRSSLEEHKERCRTFLQSTDPGDTASAEARHIKAEMGSERALVLDRLASNVAKRKSSMPQKFIGEKRHCFDVNYNSSYMYEKESELIQTRMMDQAINNAISYLGAEALRPLVQTPPAPTSEMVPVISSMYPIALTRAEMSNGAPQELEKKSIHLPEKSVPSERGLSPNNSGHDSTDTDSNHEERQNHIYQQNHMVLSRARNGMPLLKEVPRSYELLKPPPICPRDSVKVINKEGEVMDVYRCDHCRVLFLDYVMFTIHMGCHGFRDPFECNMCGYRSHDRYEFSSHIARGEHRALLK
partner: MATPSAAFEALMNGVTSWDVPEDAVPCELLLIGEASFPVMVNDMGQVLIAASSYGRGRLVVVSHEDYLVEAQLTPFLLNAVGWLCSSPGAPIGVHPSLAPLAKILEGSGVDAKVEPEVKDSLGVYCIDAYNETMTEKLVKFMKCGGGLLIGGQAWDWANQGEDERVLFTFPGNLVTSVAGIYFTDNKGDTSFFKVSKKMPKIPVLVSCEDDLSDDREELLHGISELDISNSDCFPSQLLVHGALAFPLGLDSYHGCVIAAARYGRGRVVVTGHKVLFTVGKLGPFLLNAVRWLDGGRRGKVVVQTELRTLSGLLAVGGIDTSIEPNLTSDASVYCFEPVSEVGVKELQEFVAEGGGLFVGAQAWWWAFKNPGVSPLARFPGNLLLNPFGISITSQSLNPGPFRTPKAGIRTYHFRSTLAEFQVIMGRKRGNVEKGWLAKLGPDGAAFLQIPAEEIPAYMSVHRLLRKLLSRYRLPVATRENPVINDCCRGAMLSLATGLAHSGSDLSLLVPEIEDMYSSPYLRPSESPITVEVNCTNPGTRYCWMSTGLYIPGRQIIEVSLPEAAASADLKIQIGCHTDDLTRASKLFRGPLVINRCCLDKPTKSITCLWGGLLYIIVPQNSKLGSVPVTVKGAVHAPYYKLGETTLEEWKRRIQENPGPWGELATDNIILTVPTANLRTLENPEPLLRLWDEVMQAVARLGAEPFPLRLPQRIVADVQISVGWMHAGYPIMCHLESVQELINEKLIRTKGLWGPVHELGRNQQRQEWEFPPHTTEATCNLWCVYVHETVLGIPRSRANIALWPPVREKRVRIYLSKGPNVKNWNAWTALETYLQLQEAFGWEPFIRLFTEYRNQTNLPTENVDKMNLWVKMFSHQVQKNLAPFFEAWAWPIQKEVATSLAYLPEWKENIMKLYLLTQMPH
B2: Acylamino-acid-releasing enzyme (Homo sapiens), P13798 (parent)
chain: MERQVLLSEPEEAAALYRGLSRQPALSAACLGPEVTTQYGGQYRTVHTEWTQRDLERMENIRFCRQYLVFHDGDSVVFAGPAGNSVETRGELLSRESPSGTMKAVLRKAGGTGPGEEKQFLEVWEKNRKLKSFNLSALEKHGPVYEDDCFGCLSWSHSETHLLYVAEKKRPKAESFFQTKALDVSASDDEIARLKKPDQAIKGDQFVFYEDWGENMVSKSIPVLCVLDVESGNISVLEGVPENVSPGQAFWAPGDAGVVFVGWWHEPFRLGIRFCTNRRSALYYVDLIGGKCELLSDDSLAVSSPRLSPDQCRIVYLQYPSLIPHHQCSQLCLYDWYTKVTSVVVDVVPRQLGENFSGIYCSLLPLGCWSADSQRVVFDSAQRSRQDLFAVDTQVGTVTSLTAGGSGGSWKLLTIDQDLMVAQFSTPSLPPTLKVGFLPSAGKEQSVLWVSLEEAEPIPDIHWGIRVLQPPPEQENVQYAGLDFEAILLQPGSPPDKTQVPMVVMPHGGPHSSFVTAWMLFPAMLCKMGFAVLLVNYRGSTGFGQDSILSLPGNVGHQDVKDVQFAVEQVLQEEHFDASHVALMGGSHGGFISCHLIGQYPETYRACVARNPVINIASMLGSTDIPDWCVVEAGFPFSSDCLPDLSVWAEMLDKSPIRYIPQVKTPLLLMLGQEDRRVPFKQGMEYYRALKTRNVPVRLLLYPKSTHALSEVEVESDSFMNAVLWLRTHLGS
B3: Tripartite motif-containing protein 10 (Homo sapiens), Q9UDY6 (parent)
chain: MASAASVTSLADEVNCPICQGTLREPVTIDCGHNFCRACLTRYCEIPGPDLEESPTCPLCKEPFRPGSFRPNWQLANVVENIERLQLVSTLGLGEEDVCQEHGEKIYFFCEDDEMQLCVVCREAGEHATHTMRFLEDAAAPYREQIHKCLKCLRKEREEIQEIQSRENKRMQVLLTQVSTKRQQVISEFAHLRKFLEEQQSILLAQLESQDGDILRQRDEFDLLVAGEICRFSALIEELEEKNERPARELLTDIRSTLIRCETRKCRKPVAVSPELGQRIRDFPQQALPLQREMKMFLEKLCFELDYEPAHISLDPQTSHPKLLLSEDHQRAQFSYKWQNSPDNPQRFDRATCVLAHTGITGGRHTWVVSIDLAHGGSCTVGVVSEDVQRKGELRLRPEEGVWAVRLAWGFVSALGSFPTRLTLKEQPRQVRVSLDYEVGWVTFTNAVTREPIYTFTASFTRKVIPFFGLWGRGSSFSLSS
partner: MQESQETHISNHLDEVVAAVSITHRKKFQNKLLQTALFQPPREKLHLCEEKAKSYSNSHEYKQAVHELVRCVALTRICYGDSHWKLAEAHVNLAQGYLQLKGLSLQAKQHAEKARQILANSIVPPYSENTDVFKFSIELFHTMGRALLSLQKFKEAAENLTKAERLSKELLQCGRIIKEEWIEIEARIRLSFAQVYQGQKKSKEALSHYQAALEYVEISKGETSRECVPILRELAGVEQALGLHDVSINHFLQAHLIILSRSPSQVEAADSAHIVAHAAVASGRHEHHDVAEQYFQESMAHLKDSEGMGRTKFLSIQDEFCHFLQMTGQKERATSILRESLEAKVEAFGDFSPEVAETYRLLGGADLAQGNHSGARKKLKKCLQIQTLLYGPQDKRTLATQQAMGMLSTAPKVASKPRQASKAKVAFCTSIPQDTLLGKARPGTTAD
B4: DCC-interacting protein 13-alpha (Homo sapiens), Q9UKG1 (parent)
chain: MPGIDKLPIEETLEDSPQTRSLLGVFEEDATAISNYMNQLYQAMHRIYDAQNELSAATHLTSKLLKEYEKQRFPLGGDDEVMSSTLQQFSKVIDELSSCHAVLSTQLADAMMFPITQFKERDLKEILTLKEVFQIASNDHDAAINRYSRLSKKRENDKVKYEVTEDVYTSRKKQHQTMMHYFCALNTLQYKKKIALLEPLLGYMQAQISFFKMGSENLNEQLEEFLANIGTSVQNVRREMDSDIETMQQTIEDLEVASDPLYVPDPDPTKFPVNRNLTRKAGYLNARNKTGLVSSTWDRQFYFTQGGNLMSQARGDVAGGLAMDIDNCSVMAVDCEDRRYCFQITSFDGKKSSILQAESKKDHEEWICTINNISKQIYLSENPEETAARVNQSALEAVTPSPSFQQRHESLRPAAGQSRPPTARTSSSGSLGSESTNLAALSLDSLVAPDTPIQFDIISPVCEDQPGQAKAFGQGGRRTNPFGESGGSTKSETEDSILHQLFIVRFLGSMEVKSDDHPDVVYETMRQILAARAIHNIFRMTESHLLVTCDCLKLIDPQTQVTRLTFPLPCVVLYATHQENKRLFGFVLRTSSGRSESNLSSVCYIFESNNEGEKICDSVGLAKQIALHAELDRRASEKQKEIERVKEKQQKELNKQKQIEKDLEEQSRLIAASSRPNQASSEGQFVVLSSSQSEESDLGEGGKKRESEA
partner: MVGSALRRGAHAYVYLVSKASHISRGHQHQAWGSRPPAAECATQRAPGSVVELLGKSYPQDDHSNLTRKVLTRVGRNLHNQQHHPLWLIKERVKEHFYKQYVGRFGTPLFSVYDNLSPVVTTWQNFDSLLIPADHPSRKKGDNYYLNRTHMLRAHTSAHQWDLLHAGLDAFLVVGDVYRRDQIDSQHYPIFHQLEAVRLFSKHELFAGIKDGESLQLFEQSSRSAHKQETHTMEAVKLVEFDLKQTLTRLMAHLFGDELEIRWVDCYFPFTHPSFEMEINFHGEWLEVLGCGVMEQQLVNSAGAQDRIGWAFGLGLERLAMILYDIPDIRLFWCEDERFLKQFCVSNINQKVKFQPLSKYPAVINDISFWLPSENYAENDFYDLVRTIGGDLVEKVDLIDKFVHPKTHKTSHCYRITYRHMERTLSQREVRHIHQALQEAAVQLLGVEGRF
B5: Guanine nucleotide exchange factor for Rab-3A (Homo sapiens), Q8TBN0 (parent)
chain: MWSGPPQPDQGLPPPLAAVPVPWKSTDPCQGHRESPGALVETSAGEEAQGQEGPAAAQLDVLRLRSSSMEIREKGSEFLKEELHRAQKELKLKDEECERLSKVREQLEQELEELTASLFEEAHKMVREANMKQAASEKQLKEARGKIDMLQAEVTALKTLVITSTPASPNRELHPQLLSPTKAGPRKGHSRHKSTSSTLCPAVCPAAGHTLTPDREGKEVDTILFAEFQAWRESPTLDKTCPFLERVYREDVGPCLDFTMQELSVLVRAAVEDNTLTIEPVASQTLPTVKVAEVDCSSTNTCALSGLTRTCRHRIRLGDSKSHYYISPSSRARITAVCNFFTYIRYIQQGLVRQDAEPMFWEIMRLRKEMSLAKLGFFPQEA

One test covers variants of B1. As to conditions: with tcaf1_human TCAF1, Q9Y4C2.
Take N119D: the “effect of a mutation on the interaction” value is “with no effect”.

In the next test the parent is B2. As to conditions: with leg8_human LGALS8, O00214.
leg8_human LGALS8, O00214, sequence (O00214 whole entry): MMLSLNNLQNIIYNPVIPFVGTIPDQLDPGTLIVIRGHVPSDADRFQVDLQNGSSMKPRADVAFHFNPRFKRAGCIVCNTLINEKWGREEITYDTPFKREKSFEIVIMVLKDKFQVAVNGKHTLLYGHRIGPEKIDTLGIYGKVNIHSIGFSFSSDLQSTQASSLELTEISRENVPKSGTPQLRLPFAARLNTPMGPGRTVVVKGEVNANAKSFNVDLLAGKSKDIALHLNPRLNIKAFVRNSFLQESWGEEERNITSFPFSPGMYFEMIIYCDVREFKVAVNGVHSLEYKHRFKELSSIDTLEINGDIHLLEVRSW
In the case of F378S, the “effect of a mutation on the interaction” value was “disrupting interaction strength”.

In the next test the parent is B3. As to conditions: with ttc23_human TTC23, Q5W5X9.
Turning to Q210L, the “effect of a mutation on the interaction” value is reported as “with no effect”. Same read-out and setting: the value for D30N was “with no effect”; that for Q161E was “with no effect”; that for I236T was “disrupting interaction strength”.

Turning to R216K, the “effect of a mutation on the interaction” value is “with no effect”.

In another test the parent is B4. As to conditions: with syfm_human FARS2, O95363.
In the case of E67G, the “effect of a mutation on the interaction” value is recorded as “with no effect”. Same read-out and setting: the value for E643Q was “with no effect”.

In a further test the parent is B5. As to conditions: with rb11a_human RAB11A.
As to S190P, the “effect of a mutation on the interaction” value is given as “with no effect”.

T26A: the “effect of a mutation on the interaction” value is listed as “with no effect”.
